Results: patent US20230329283A1 (priority 2021, published 2023)
Like-named read-outs stand apart in the source and are kept apart here.

Test system: rabbit red blood cells
Conditions: 37° C., 1 h, FIG. 6

## TrSub (EFGAGKAQCAAAWLQCASGGTLGCGGGAVACQNYRQFQCRAA; the amino acid sequence of the recombinant antimicrobial peptide TrSub)
2MIC concentration
  hemolytic activity (hemolysis rate): below 10%
MIC concentration
  hemolytic activity (hemolysis rate): below 10%
